Source: patent US6500934 (dated 2002)
Non-standard residues stand in square brackets, D forms with d. No end group written: not given here. Ahx = NCCCCCC(=O)O

Target: bombesin receptor expressed in transfected Xenopus laevis melanophores (plasmid pJG3.6BR)
Assay: cell-based or functional assay

EC50 (t=30 min) of pigment dispersion in melanophores transfected with the bombesin receptor: 110 nM
B1: Bombesin monomer (K(20)-εAhx-GGG-QQRLGNQWAVGHLM) (peptide)
peptide: KKKKKKKKKKKKKKKKKKKK[Ahx]GGGQQRLGNQWAVGHLM-NH2
modifications: ends and bridges not checked
